In article doi:10.1101/580076:

Target: HAdV-D26 fiber-knob protein (human adenovirus D serotype 26 (HAdV-D26))
Assay: crystal structure

Substance: HAdV-D26 fiber-knob protein (domain or fragment)
- stoichiometry N: 3
